Data published in patent US20260232828A1, “LIGAND-CYTOTOXICITY DRUG CONJUGATES AND PHARMACEUTICAL USES THEREOF” (HANSOH BIO LLC, priority 2023, published 2026).
Residue numbers refer to the chain shown, from its start.

B1: 14B12 (hybridoma clone supernatant) (antibody, V domains shown)
VH: QVQLQESGPGLVKPSETLSLTCTVSGGSINTYYRSWIRQPPGKGLEWIGYIYYSGNTNYNPSLKSRVTISADTSKNQFSLNLISVTAADTAMYYCARAQYGEEAFDIWGQGTLVTVSS
VL: DIQMTQSPSSLSASVGDRVTITCRASQSITTYLNWYQQKPGKAPQLLIFAASRLQTGVPSRFSGSGSGTDFTLTISSLLPGDFATYYCQQSYNTPPTFGGGTKVEIK
notes: Hybridoma supernatant
B2: 10E11 (hybridoma clone supernatant) (antibody, V domains shown)
VH: EVQLVQSGTEVKKPGESLKISCKDSGYRFSSYWIGWVRQMPGKGLEWMGIIYPGDSDTRYSPSFQGQVTISADKSISTAYLQWRSLKASDTAMYYCARRGWVNYFDYWGQGTLVTVSS
VL: DIQMTQSPSSVSASVGDRVTITCRASQGISNWLGWYQQKPGKAPKLLIYAASSLQSGVPSRFSGSGSGTDFTLTISSLQPEDFATYYCQQANSFPLTFGGGTKVEIK
notes: Hybridoma supernatant
B3: 1H10 (hybridoma clone supernatant) (antibody, V domains shown)
VH: QVQLVESGGGVVQPGRSLRLSCVASGFTFSSYGMHWVRQAPGKGLEWVTFIWYDGSNKNYADSVKGRFTISRDNSKNTLNLQMNSLRVEDTAVYYCARDRYSSGWDVFDYWGQGTLVTVSS
VL: B2 VL with G28D, N31S, G34A, K39Q, L47Q, N92K, L96P, G100Q
notes: Hybridoma supernatant from mice encoding human heavy and kappa variable regions
B4: 15A4 (hybridoma clone supernatant) (antibody, V domains shown)
VH: B3 VH with V23A, T28N, T49A, I51V, K58Q, K76N, N80Y, V88A
VL: B2 VL with N31S, G34A, Y49F, D70G, N92K, L96P, G100Q
notes: Hybridoma supernatant
B5: 17F3 (hybridoma clone supernatant) (antibody, V domains shown)
VH: EVQLVESGGGLVKSGGSLRLSCAASGFTFSSYSLKWVRQAPGKGLEWVSSISSSSGYIYYADSVKGRFTISRDNAKNSLYLQMNSLRAEDTAMYYCARAVSTIAARPGYYYYYMDVWGKGTLVTVSS
VL: B2 VL with V15I, G28D, N31T, L33F, G34A, S53T, Q55R, S76N
notes: Hybridoma supernatant
B6: 2F9 (hybridoma clone supernatant) (antibody, V domains shown)
VH: EVQLVESGGGVVRPGGSLRLSCAASGFTFDDYGMSWVRQAPGKGLEWVSGLSWNGGNTYYADSVKGRFTISRDNAKNSLYLQMNSLRAEDTALYYCARGSRYNWNYDAFDIWGQGTLVTVSS
VL: DIQMTQSPSSLSASIGDRVTITCRASQGIRNALGWYQQKPGKAPKRLIYAASNLQSGVPSRFSGSGSGTEFTLTISSLQPEDFATYYCLQHNSYPFTFGPGTKVEIK
notes: Hybridoma supernatant
B7: 9E2 (hybridoma clone supernatant) (antibody, V domains shown)
VH: B6 VH with D31N, L51I, S52N, N57S, K65R, N105S
VL: B6 VL with I15V, I29V, N53S
notes: Hybridoma supernatant
B8: 13C7 (hybridoma clone supernatant) (antibody, V domains shown)
VH: QITLKESGPTLVKPTQTLTLTCTFSGFSLSTSGVGVGWIRQPPGKALEWLALIYWNDDKRYRPSLKNRLTITKDTSKNQVVLTMTNMDPVDTATYYCTHYGVTAPFYNWFDPWGQGTLVTVSS
VL: DIQMTQSPSSLSASVGDRVTITCRASQSITSYLNWYQQKPGKAPKLLIYAASSLQSGVPSRFSGSGSGTDFTLTISSLQPEDFATYYCQRSYSTLTFGGGTKVEIK
notes: Hybridoma supernatant
B9: 19C7 (hybridoma clone supernatant) (antibody, V domains shown)
VH: B8 VH with F27I, S32G, A51S, R62S, N67S, T75S, T98A, Y100S, V102L, T103A
VL: B8 VL with T30S, S31N, Q38L, K42N, Y49F, Y87F
notes: Hybridoma supernatant
B10: 1H10 anti-CDH17 recombinant antibody (human IgG1) (antibody, V domains shown)
VH: B3 VH
VL: DIQMTQSPSSVSASVGDRVTITCRASQDISSWLAWYQQQPGKAPKLQIYAASSLQSGVPSRFSGSGSGTDFTLTISSLQPEDFATYYCQQAKSFPPTFGQGTKVEIKR
B11: 17F3 anti-CDH17 recombinant antibody (human IgG1) (antibody, V domains shown)
VH: B5 VH
VL: DIQMTQSPSSVSASIGDRVTITCRASQDISTWFAWYQQKPGKAPKLLIYAASTLRSGVPSRFSGSGSGTDFTLTINSLQPEDFATYYCQQANSFPLTFGGGTKVEIKR
B12: 2F9 anti-CDH17 recombinant antibody (human IgG1) (antibody, V domains shown)
VH: B6 VH
VL: DIQMTQSPSSLSASIGDRVTITCRASQGIRNALGWYQQKPGKAPKRLIYAASNLQSGVPSRFSGSGSGTEFTLTISSLQPEDFATYYCLQHNSYPFTFGPGTKVEIKR
B13: 9E2 anti-CDH17 recombinant antibody (human IgG1) (antibody, V domains shown)
VH: B6 VH with D31N, L51I, S52N, N57S, K65R, N105S
VL: B12 VL with I15V, I29V, N53S
B14: 13C7 anti-CDH17 recombinant antibody (human IgG1) (antibody, V domains shown)
VH: B8 VH
VL: DIQMTQSPSSLSASVGDRVTITCRASQSITSYLNWYQQKPGKAPKLLIYAASSLQSGVPSRFSGSGSGTDFTLTISSLQPEDFATYYCQRSYSTLTFGGGTKVEIKR
B15: 19C7 anti-CDH17 recombinant antibody (human IgG1) (antibody, V domains shown)
VH: B8 VH with F27I, S32G, A51S, R62S, N67S, T75S, T98A, Y100S, V102L, T103A
VL: B14 VL with T30S, S31N, Q38L, K42N, Y49F, Y87F

target: T1, BSA (UniProt P02769 25-607); test: ELISA, plate coated with 1 µg/ml BSA, hybridoma supernatant
T1 construct: Control coating protein of the ELISA
T1 sequence (P02769 25-607 limits assumed): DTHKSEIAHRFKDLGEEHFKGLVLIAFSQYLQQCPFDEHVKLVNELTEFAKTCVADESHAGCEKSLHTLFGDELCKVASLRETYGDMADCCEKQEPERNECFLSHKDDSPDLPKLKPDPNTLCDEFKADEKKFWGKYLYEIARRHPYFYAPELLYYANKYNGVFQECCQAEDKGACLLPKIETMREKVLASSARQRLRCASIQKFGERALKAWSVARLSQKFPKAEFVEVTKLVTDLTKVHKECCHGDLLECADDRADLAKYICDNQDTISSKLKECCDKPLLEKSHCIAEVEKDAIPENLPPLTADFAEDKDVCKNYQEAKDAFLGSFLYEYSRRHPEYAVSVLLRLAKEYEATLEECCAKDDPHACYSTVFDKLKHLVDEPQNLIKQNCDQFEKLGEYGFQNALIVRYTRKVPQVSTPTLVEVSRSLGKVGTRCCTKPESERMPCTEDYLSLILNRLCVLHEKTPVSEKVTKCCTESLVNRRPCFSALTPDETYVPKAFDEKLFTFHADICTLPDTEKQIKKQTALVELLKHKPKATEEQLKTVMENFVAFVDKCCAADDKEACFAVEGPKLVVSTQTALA
Description: (§1) ELISA was performed using the DuoSet ELISA Ancillary Kit (R&D System, DY008). ELISA plates were coated with 1 μg/ml of human CDH17 His Tag (Sino biological, catalog number 11360-H08H), or BSA overnight. Excess unbound proteins were washed off by washing the plates three times with the wash buffer before blocking for 1 hour at room temperature. 100 μl CDH17 hybridoma supernatant was added in each well and incubated for 1 hour at room temperature. Excess unbound antibodies were washed off and 100 μl of 1:30000 diluted secondary antibody Goat anti-mouse IgG Fc-HRP (ab5870) was added to each well for another 1 hour. Plates were washed before the addition 50 μL of […] (color A and color B) according to manufacturer's protocol. The reactions were stopped using 25 μL of stop solution. Optical density at 450 nm of samples was measured by a microplate reader (PerkinElmer).

Row | Binder | binding result
1 | B1 | no binding
2 | B2 | no binding
3 | B3 | no binding
4 | B4 | no binding
5 | B5 | no binding
6 | B6 | no binding
7 | B7 | no binding
8 | B8 | no binding
9 | B9 | no binding

target: T2, human CDH17 as originally expressed in cells (cell surface CDH17 on AsPC1, GP2d and other cancer cell lines) (human, UniProt Q12864 23-832); test: flow cytometry titration on CDH17 positive AsPC1 cells
T2 construct: whole, on cells; Endogenous CDH17 on human cancer cell lines; AsPC1 and GP2d are named CDH17 positive; also called CDH17 positive AsPC1 cells; GP2d cells
Description: To determine the binding of recombinant antibody to cell surface CDH17 receptors, cells were first harvested and resuspended in cell staining buffer (BioLegend, Cat #420201) at 1.3-1.5×10⁶ cells/mL. Then, the cells were treated with human Fc receptor blocking reagent (BioLegend, Cat #422302) on the ice for 10 min. The resulting cell suspension was aliquoted into 50 μL aliquots. […] The cells were incubated on the ice for 1 hour and then washed with cell staining buffer twice. 50 μL of secondary antibody (PE conjugated goat anti-human Fc, eBioscience™, 1:250 dilution) was added to each sample to resuspend the cells. The cells were incubated on the ice for another 20 min. Cells were subsequently washed twice with cell staining buffer and resuspended in 4% PFA to fix the cells. The samples were analyzed using iQue3 to measure the median fluorescence intensity using corresponding channels.

Row | Binder | Kd
10 | B10 | 0.31 nM
11 | B11 | 0.74 nM
12 | B12 | 0.17 nM
13 | B13 | 0.31 nM
14 | B14 | 0.28 nM
15 | B15 | 0.13 nM

target: T1, BSA; test: ELISA, plate coated with BSA, hybridoma supernatant
Description: as §1

Row | Binder | OD450
16 | B1 | 0.041 OD450
17 | B2 | 0.0475 OD450
18 | B3 | 0.0399 OD450
19 | B4 | 0.0431 OD450
20 | B5 | 0.0425 OD450
21 | B6 | 0.0718 OD450
22 | B7 | 0.0429 OD450
23 | B8 | 0.0432 OD450
24 | B9 | 0.0468 OD450

target: T2, human CDH17 as originally expressed in …; test: cell-based or functional assay

Row | Binder | IC50 of indirect killing assay to evaluate the internalization in AsPC1 cells
25 | B10 | 0.19 nM
26 | B11 | 0.08 nM
27 | B12 | 0.14 nM
28 | B13 | 0.15 nM
29 | B14 | 0.09 nM
30 | B15 | 0.09 nM

target: T3, human CDH17 His Tag (Sino biological, catalog number 11360-H08H) (human, UniProt Q12864 23-787); test: ELISA, plate coated with 1 µg/ml human CDH17 His Tag, hybridoma supernatant
T3 construct: Bought recombinant protein; also called hCDH17; human CDH17 protein; not shown: His tag
Description: as §1

Row | Binder | OD450
31 | B1 | 1.88 OD450
32 | B2 | 1.48 OD450
33 | B3 | 1.79 OD450
34 | B4 | 1.6 OD450
35 | B5 | 1.66 OD450
36 | B6 | 1.72 OD450
37 | B7 | 1.48 OD450
38 | B8 | 1.62 OD450
39 | B9 | 1.84 OD450
